Data reported in patent US20090130676A1 (GENERAL HOSPITAL, published 2009).

B1: Cdk7 (enzyme, not shown: small tags and cut ends)
chain: ALDVKSRAKRYEKLDFLGEGQFATVYKARDKNTNQIVAIKKIKLGHRSEAKDGINRTALREIKLLQELSHPNIIGLLDAFGHKSNISLVFDFMETDLEVIIKDNSLVLTPSHIKAYMLMTLQGLEYLHQHWILHRDLKPNNLLLDENGVLKLADFGLAKSFGSPNRAYTHQVVTRWYRAPELLFGARMYGVGVDMWAVGCILAELLLRVPFLPGDSDLDQLTRIFETLGTPTEEQWPDMCSLPDYVTFKSFPGIPLHHIFSAAGDDLLDLIQGLFLFNPCARITATQALKMKYFSNRPGPTPGCQLPRPNCPVETLKEQSNPALAIKRKRTEALEQGGLPKKLIF
notes: Bait strain named only on the sheet
B2: pep12 (FIG. 4B numbering), thioredoxin prey fusion (designed binder, not shown: large carriers)
chain: MSDKIIHLTDDSFDTDVLKADGAILVDFWAEWCGPRPLTGRWVVWGRRHEECGLTGPCKMIAPILDEIADEYQGKLTVAKLNIDQNPGTAPKYGIRGIPTLLLFKNGEVAATKVGALSKGQLKEFLDANLA
B3: pep13 (FIG. 4B numbering), thioredoxin prey fusion (designed binder, not shown: large carriers)
chain: MSDKIIHLTDDSFDTDVLKADGAILVDFWAEWCGPPVCCMMYGHRTAPHSVFNVDGPCKMIAPILDEIADEYQGKLTVAKLNIDQNPGTAPKYGIRGIPTLLLFKNGEVAATKVGALSKGQLKEFLDANLA
B4: pep14 (FIG. 4B numbering), thioredoxin prey fusion (designed binder, not shown: large carriers)
chain: MSDKIIHLTDDSFDTDVLKADGAILVDFWAEWCGPWSPELLRAMVAFRWLLERRPGPCKMIAPILDEIADEYQGKLTVAKLNIDQNPGTAPKYGIRGIPTLLLFKNGEVAATKVGALSKGQLKEFLDANLA
B5: pep6 (FIG. 4B numbering), thioredoxin prey fusion (designed binder, not shown: large carriers)
chain: MSDKIIHLTDDSFDTDVLKADGAILVDFWAEWCGPRVKLGYSFWAQSLLRCISVGGPCKMIAPILDEIADEYQGKLTVAKLNIDQNPGTAPKYGIRGIPTLLLFKNGEVAATKVGALSKGQLKEFLDANLA
B6: pep7 (FIG. 4B numbering), thioredoxin prey fusion (designed binder, not shown: large carriers)
chain: MSDKIIHLTDDSFDTDVLKADGAILVDFWAEWCGPQLYAGCYLGVVIASSLSIRVGPCKMIAPILDEIADEYQGKLTVAKLNIDQNPGTAPKYGIRGIPTLLLFKNGEVAATKVGALSKGQLKEFLDANLA
B7: pep9 (FIG. 4B numbering), thioredoxin prey fusion (designed binder, not shown: large carriers)
chain: MSDKIIHLTDDSFDTDVLKADGAILVDFWAEWCGPQQRFVFSPSWFTCAGTSDFWGPEPLFDWTRDGPCKMIAPILDEIADEYQGKLTVAKLNIDQNPGTAPKYGIRGIPTLLLFKNGEVAATKVGALSKGQLKEFLDANLA

Tests used:
[1] = target: human Cdk2 expressed from a plasmid in cdc28ts yeast (human, UniProt P24941 1-298); assay: cell-based or functional assay
Cdk6 = target: T1, Cdk6; assay: yeast interaction trap mating assay, lacZ reporter on Xgal
T1 construct: Bait strain named only on the sheet

Cdk7 = target: B1; assay: as above
LexA-Cdk3 bait = target: T2, LexA-Cdk3 bait (human, UniProt Q00526 1-305, limits assumed); assay: as above
T2 construct: also called human Cdk3; not shown: bacterial LexA protein
T2 sequence (Q00526 whole entry): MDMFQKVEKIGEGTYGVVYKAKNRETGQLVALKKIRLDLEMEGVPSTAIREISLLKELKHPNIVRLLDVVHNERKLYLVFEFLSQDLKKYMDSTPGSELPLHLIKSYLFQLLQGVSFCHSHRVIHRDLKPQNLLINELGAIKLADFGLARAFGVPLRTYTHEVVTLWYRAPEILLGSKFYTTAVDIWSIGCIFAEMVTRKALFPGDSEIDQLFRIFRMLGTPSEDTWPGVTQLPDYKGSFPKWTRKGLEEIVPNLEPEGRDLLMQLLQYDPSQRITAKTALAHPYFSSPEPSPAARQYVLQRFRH

CDC28 = target: T3, CDC28 (Saccharomyces cerevisiae (strain ATCC …, UniProt P00546 1-298)); assay: as above
T3 construct: bait construct not described
T3 sequence (P00546 whole entry): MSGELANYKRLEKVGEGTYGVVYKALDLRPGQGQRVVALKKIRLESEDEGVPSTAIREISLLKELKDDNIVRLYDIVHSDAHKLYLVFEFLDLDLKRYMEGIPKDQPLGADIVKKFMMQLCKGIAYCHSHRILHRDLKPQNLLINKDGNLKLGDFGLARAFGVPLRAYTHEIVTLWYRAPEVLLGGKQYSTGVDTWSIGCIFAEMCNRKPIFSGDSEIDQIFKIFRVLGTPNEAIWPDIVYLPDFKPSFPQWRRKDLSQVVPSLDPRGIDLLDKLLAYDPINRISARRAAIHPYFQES

Cdc2 = target: T4, Cdc2 (Homo sapiens (Human), UniProt P06493 1-297); assay: as above
T4 construct: bait construct and species not described
T4 sequence (P06493 whole entry): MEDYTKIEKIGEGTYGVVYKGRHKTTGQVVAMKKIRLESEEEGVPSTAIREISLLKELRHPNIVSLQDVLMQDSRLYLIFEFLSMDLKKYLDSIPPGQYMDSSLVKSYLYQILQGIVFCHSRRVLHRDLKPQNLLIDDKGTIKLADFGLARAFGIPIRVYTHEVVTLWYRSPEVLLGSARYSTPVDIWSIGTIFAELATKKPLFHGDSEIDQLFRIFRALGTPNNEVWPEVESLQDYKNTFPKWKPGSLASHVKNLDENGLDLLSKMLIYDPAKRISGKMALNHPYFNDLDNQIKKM

Drosophila Cdc2c = target: T5, Drosophila Cdc2c (Drosophila, UniProt P23573 1-314, limits assumed); assay: as above
T5 construct: bait construct not described
T5 sequence (P23573 whole entry): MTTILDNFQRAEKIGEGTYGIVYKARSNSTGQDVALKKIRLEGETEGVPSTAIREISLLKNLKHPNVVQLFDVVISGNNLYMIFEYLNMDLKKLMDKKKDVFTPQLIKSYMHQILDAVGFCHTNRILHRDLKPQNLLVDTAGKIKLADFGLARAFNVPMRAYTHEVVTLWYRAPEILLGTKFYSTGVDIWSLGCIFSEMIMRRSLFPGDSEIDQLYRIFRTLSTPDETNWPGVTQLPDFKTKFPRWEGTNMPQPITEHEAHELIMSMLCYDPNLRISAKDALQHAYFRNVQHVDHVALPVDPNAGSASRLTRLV

Cdk4 [2] = target: T6, Cdk4 (Homo sapiens (Human), UniProt P11802 2-303); assay: as above
T6 construct: construct not described
T6 sequence (P11802 2-303 limits assumed): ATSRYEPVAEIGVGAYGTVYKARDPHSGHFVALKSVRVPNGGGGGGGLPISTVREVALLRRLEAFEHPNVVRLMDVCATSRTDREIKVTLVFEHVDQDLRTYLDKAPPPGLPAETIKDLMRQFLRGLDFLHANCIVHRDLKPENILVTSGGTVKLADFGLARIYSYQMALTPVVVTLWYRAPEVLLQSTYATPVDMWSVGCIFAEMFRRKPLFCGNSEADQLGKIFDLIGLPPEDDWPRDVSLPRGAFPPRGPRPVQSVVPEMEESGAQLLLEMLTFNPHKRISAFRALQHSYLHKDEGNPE

[3] = target: B5; assay: as above
[4] = target: B6; assay: as above
[5] = target: B7; assay: as above
[6] = target: B2; assay: as above
[7] = target: B3; assay: as above
[8] = target: B4; assay: as above
Cdk4 [9] = target: T6, Cdk4; assay: yeast interaction trap mating assay (FIG. 4A)

Binder | fold decrease in plating efficiency of a Cdk2-dependent cdc28-1N yeast strain at the restrictive temperature [1] [fold] | binding result (Cdk6) | binding result (Cdk7) | binding result (LexA-Cdk3 bait) | binding result (CDC28) | binding result (Cdc2) | binding result (Drosophila Cdc2c) | binding result (Cdk4 [2]) | binding result [3] | binding result [4] | binding result [5] | binding result [6] | binding result [7] | binding result [8] | binding result (Cdk4 [9])
peptide 13 (FIG. 3A/3B numbering), thioredoxin prey fusion (designed binder, not shown: large carriers; small tags and cut ends, peptide loop embedded in the thioredoxin active-site loop between Cys33 and Cys36 (may form a disulfide)) MSDKIIHLTDDSFDTDVLKADGAILVDFWAEWCGPSVRMRYGIDAFFDLGGLLHGGPCKMIAPILDEIADEYQGKLTVAKLNIDQNPGTAPKYGIRGIPTLLLFKNGEVAATKVGALSKGQLKEFLDANLA | 10 | – | – | – | – | – | – | – | – | – | – | – | – | – | –
pep5 (designed binder, not shown: large carriers; small tags and cut ends, peptide loop embedded in the thioredoxin active-site loop between Cys33 and Cys36 (may form a disulfide), the purified His6 form is m42) MSDKIIHLTDDSFDTDVLKADGAILVDFWAEWCGPSVRMRYGIDAFFDLGGLLHGGPCKMIAPILDEIADEYQGKLTVAKLNIDQNPGTAPKYGIRGIPTLLLFKNGEVAATKVGALSKGQLKEFLDANLA | – | no binding | no binding | binds | no binding | no binding | no binding | no binding | – | – | – | – | – | – | –
B1 | – | – | – | – | – | – | – | – | no binding | no binding | no binding | no binding | no binding | no binding | –
B2 | – | – | – | no binding | no binding | no binding | no binding | – | – | – | – | – | – | – | no binding
B3 | – | – | – | no binding | no binding | no binding | no binding | – | – | – | – | – | – | – | no binding
pep2 (designed binder, not shown: small tags and cut ends, Peptide loop sits in the TrxA active-site loop; flanking Cys33 and Cys36 may form a disulfide, the purified His6 form is m40) MSDKIIHLTDDSFDTDVLKADGAILVDFWAEWCGPLVCKSYRLDWEAGALFRSLFGPCKMIAPILDEIADEYQGKLTVAKLNIDQNPGTAPKYGIRGIPTLLLFKNGEVAATKVGALSKGQLKEFLDANLA | – | no binding | no binding | no binding | no binding | no binding | no binding | no binding | – | – | – | – | – | – | –
B4 | – | – | – | no binding | no binding | no binding | no binding | – | – | – | – | – | – | – | no binding
B5 | – | – | – | no binding | no binding | no binding | no binding | – | – | – | – | – | – | – | no binding
B6 | – | – | – | no binding | no binding | no binding | no binding | – | – | – | – | – | – | – | no binding
pep8 (designed binder, not shown: large carriers; small tags and cut ends, peptide loop embedded in the thioredoxin active-site loop between Cys33 and Cys36 (may form a disulfide), The purified His6 form is m43) MSDKIIHLTDDSFDTDVLKADGAILVDFWAEWCGPYSFVHHGFFNFRVSWREMLAGPCKMIAPILDEIADEYQGKLTVAKLNIDQNPGTAPKYGIRGIPTLLLFKNGEVAATKVGALSKGQLKEFLDANLA | – | no binding | no binding | no binding | no binding | no binding | no binding | no binding | – | – | – | – | – | – | –
B7 | – | – | – | no binding | no binding | no binding | no binding | – | – | – | – | – | – | – | no binding
pep10 (designed binder, not shown: small tags and cut ends, Peptide loop sits in the TrxA active-site loop; flanking Cys33 and Cys36 may form a disulfide, The purified His6 form is m44) MSDKIIHLTDDSFDTDVLKADGAILVDFWAEWCGPQVWSLWALGWRWLRRYGWNMGPCKMIAPILDEIADEYQGKLTVAKLNIDQNPGTAPKYGIRGIPTLLLFKNGEVAATKVGALSKGQLKEFLDANLA | – | no binding | no binding | no binding | no binding | no binding | no binding | no binding | – | – | – | – | – | – | –
pep11 (designed binder, not shown: small tags and cut ends, Peptide loop sits in the TrxA active-site loop; flanking Cys33 and Cys36 may form a disulfide, The purified His6 form is m45) MSDKIIHLTDDSFDTDVLKADGAILVDFWAEWCGPWRRMELDAEIRWVKPISPLEGPCKMIAPILDEIADEYQGKLTVAKLNIDQNPGTAPKYGIRGIPTLLLFKNGEVAATKVGALSKGQLKEFLDANLA | – | no binding | no binding | no binding | no binding | no binding | no binding | no binding | – | – | – | – | – | – | –
